The target in this experiment is recombinant soluble trimeric gp140 from the clade A Ugandan HIV-1 field isolate 94UG018 (HIV-1 clade A isolate 94UG018). Kind of experiment: SEC; final gel filtration on an SD200 column equilibrated with PBS; fractions corresponding to the gp140 trimer collected and pooled. (In general: SEC sorts molecules by how far they enter the pores of the column.)

For the substance “recombinant soluble trimeric gp140 from the clade A Ugandan HIV-1 field isolate 94UG018 (natural protein)”, the stoichiometry N (as a rule, the number of molecules, sites or subunits per partner or assembly) worked out at 3.

(Values after publication PMC3729709.)
